Source: FireProtDB (doi:10.1006/jmbi.2000.3958)

B1: Cyclin-dependent kinases regulatory subunit, P08463 (parent)
chain: MSKSGVPRLLTASERERLEPFIDQIHYSPRYADDEYEYRHVMLPKAMLKAIPTDYFNPETGTLRILQEEEWRGLGITQSLGWEMYEVHVPEPHILLFKREKDYQMKFSQQRGG

Variants of: B1
Conditions: Schizosaccharomyces pombe (strain 972 / ATCC 24843); pH 7.5; 25 °C; Urea; Fluorescence; Tris 50 mM; structure 1SCE; whole UniProt chain shown

Variant	ddG of mutation (higher = less stable)	denaturant m value	denaturant midpoint (higher = more stable)
S28G	-0.89 kcal/mol	1.62 kcal/mol/M	4.98 M
S28A	0.34 kcal/mol	1.61 kcal/mol/M	4.21 M
P44A	3.04 kcal/mol	1.56 kcal/mol/M	2.52 M
P20A	0.3 kcal/mol	1.5 kcal/mol/M	4.23 M
P29A	-0.23 kcal/mol	1.39 kcal/mol/M	4.56 M
V89A	0.24 kcal/mol	1.6 kcal/mol/M	4.27 M
V89G	-0.81 kcal/mol	1.63 kcal/mol/M	4.93 M
P90G P92G	-0.88 kcal/mol	1.46 kcal/mol/M	4.97 M
P52A	2.57 kcal/mol	1.75 kcal/mol/M	2.81 M
P90G	-1.33 kcal/mol	1.53 kcal/mol/M	5.25 M
P90A P92A	-0.93 kcal/mol	1.4 kcal/mol/M	5 M
P92G	-0.07 kcal/mol	1.55 kcal/mol/M	4.46 M
P92A	-0.07 kcal/mol	1.78 kcal/mol/M	4.46 M
P7A	0.2 kcal/mol	1.57 kcal/mol/M	4.29 M
